In patent US20060154859A1:

Target: mouse LEPRb (mouse), P48356
Experiment: cell-based or functional assay

Sequence of mouse LEPRb (mouse), P48356 (P48356 22-1162): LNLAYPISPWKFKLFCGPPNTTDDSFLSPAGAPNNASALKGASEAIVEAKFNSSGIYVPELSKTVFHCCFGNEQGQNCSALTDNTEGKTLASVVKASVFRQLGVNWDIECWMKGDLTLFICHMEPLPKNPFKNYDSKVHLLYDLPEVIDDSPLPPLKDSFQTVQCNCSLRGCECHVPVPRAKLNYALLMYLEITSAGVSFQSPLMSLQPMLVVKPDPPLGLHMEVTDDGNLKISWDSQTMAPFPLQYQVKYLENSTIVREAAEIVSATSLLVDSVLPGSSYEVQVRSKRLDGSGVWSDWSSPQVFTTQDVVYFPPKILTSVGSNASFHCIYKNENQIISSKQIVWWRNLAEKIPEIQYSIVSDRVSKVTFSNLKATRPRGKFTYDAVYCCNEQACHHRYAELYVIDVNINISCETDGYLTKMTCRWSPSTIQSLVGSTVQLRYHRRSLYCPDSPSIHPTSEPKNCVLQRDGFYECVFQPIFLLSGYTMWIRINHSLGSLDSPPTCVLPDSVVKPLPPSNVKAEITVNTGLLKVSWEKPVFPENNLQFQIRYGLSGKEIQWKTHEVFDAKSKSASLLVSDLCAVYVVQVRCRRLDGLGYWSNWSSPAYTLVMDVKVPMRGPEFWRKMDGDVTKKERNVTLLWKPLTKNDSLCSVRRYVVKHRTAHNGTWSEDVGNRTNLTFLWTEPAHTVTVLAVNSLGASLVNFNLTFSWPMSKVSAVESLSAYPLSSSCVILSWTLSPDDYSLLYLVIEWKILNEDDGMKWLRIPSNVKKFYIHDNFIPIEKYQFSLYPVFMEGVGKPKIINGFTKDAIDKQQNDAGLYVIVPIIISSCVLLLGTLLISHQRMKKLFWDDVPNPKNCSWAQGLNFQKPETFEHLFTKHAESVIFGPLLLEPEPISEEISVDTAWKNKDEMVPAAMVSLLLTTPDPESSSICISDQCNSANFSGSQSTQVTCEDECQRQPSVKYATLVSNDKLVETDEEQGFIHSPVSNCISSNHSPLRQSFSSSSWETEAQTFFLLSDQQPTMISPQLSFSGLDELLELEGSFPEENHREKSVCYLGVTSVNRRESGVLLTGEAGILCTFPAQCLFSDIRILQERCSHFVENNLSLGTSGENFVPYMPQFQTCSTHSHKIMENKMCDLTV

inhibition of leptin-inducible transactivation of luciferase reporting gene in CHO cells transiently transfected with leptin receptor, stimulated with 6.25 nM human leptin: 10 nM
B1: human leptin L39A/D40A/F41A/I42A mutant, P41159 22-167 (ligand)
chain: VPIQKVQDDTKTLIKTIVTRINDISHTQSVSSKQKVTGAAAAPGLHPILTLSKMDQTLAVYQQILTSMPSRNVIRISNDLENLRDLLHVLAFSKSCHLPWASGLETLDSLGGVLEASGYSTEVVALSRLQGSLQDMLWQLDLSPGC
